The target in assay [1] is human FcγRIIIaV extracellular domain, C-terminal His-tag (human) (UniProt P08637). Briefly: SPR 25C; FcgR bound per captured antibody, relative to parent B3.
Assay [2] addresses human FcγRIIaR extracellular domain, C-terminal His-tag (human) (UniProt P12318). Described as above.

The results in this text go back to patent publication US20200317768A1.

Chain of human FcγRIIaR extracellular domain, C-terminal His-tag (human) (P12318 34-217 H167R): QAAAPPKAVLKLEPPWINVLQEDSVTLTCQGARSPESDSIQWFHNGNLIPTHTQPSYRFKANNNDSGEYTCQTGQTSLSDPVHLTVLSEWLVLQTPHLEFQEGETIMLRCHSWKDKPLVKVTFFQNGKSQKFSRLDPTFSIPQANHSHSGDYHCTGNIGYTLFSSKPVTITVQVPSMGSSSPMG

“GpH7-B3 variant V266F/GpL16-k0 (antibody)”: the Binding to human FcgRs (parent B3 = 100) (parent B3 = 100) came out at 2 in assay [1] and 8 in assay [2].
